The record followed here is the supplement of paper PMC11246515.

± gives the standard deviation of the averaged measurements.

The nature of this data set: total protein half-life in vivo (active degradation + dilution); higher = more stable protein.
The mark [1] stands for this setting: E. coli NCM3722 delta-clpP, growth: N-lim chemostat, doubling time 6 h.
Where [2] appears, read: E. coli NCM3722 delta-smpB, growth: N-lim chemostat, doubling time 6 h.
The mark [3] stands for this setting: wild type E. coli NCM3722, growth: C-lim chemostat, doubling time 12 h.
Where [4] appears, read: wild type E. coli NCM3722, growth: N-lim chemostat, doubling time 6 h.
[5] abbreviates: wild type E. coli NCM3722, growth: P-lim chemostat, doubling time 6 h.
[6] abbreviates: wild type E. coli NCM3722, growth: P-lim chemostat, doubling time 12 h.
Where [7] appears, read: E. coli NCM3722 delta-clpP delta-lon delta-hslV, growth: N-lim chemostat, doubling time 6 h.
[8] abbreviates: E. coli NCM3722 delta-hslV, growth: N-lim chemostat, doubling time 6 h.
[9] abbreviates: wild type E. coli NCM3722, growth: C-lim chemostat, doubling time 3 h.
The mark [10] stands for this setting: wild type E. coli NCM3722, growth: C-lim chemostat, doubling time 6 h.
Where [11] appears, read: wild type E. coli NCM3722, growth: N-lim chemostat, doubling time 12 h.
The mark [12] stands for this setting: E. coli NCM3722 delta-lon, growth: N-lim chemostat, doubling time 6 h.

Regarding “MDDIVNSVPSWMFTAIIAVCILFIIGIIFARLYRRASAEQAFVRTGLGGQKVVMSGGAIVMPIFHEIIPINMNTLKLEVSRSTIDSLITKDRMRVDVVVAFFVRVKPSVEGIATAAQTLGQRTLSPEDLRMLVEDKFVDALRATAAQMTMHELQDTRENFVQGVQNTVAEDLSKNGLELESVSLTNFNQTSKEHFNPNNAFDAEGLTKLTQETERRRRERNEVEQDVEVAVREKNRDALSRKLEIEQQEAFMTLEQEQQVKTRTAEQNARIAAFEAERRREAEQTRILAERQIQETEIDREQAVRSRKVEAEREVRIKEIEQQQVTEIANQTKSIAIAAKSEQQSQAEARANLALAEAVSAQQNVETTRQTAEADRAKQVALIAAAQDAETKAVELTVRAKAEKEAAEMQAAAIVELAEATRKKGLAEAEAQRALNDAINVLSDEQTSLKFKLALLQALPAVIEKSVEPMKSIDGIKIIQVDGLNRGGAAGDANTGNVGGGNLAEQALSAALSYRTQAPLIDSLLNEIGVSGGSLAALTSPLTSTTPVEEKAE”, the “total protein half-life in vivo” value is, setting by setting: under setting [1], 4.22 h; under setting [2], 3.89 h; under setting [3], 9.53 h; under setting [4], 3.81 h; under setting [5], 6.67 h; under setting [6], 12.3 h.
Regarding “MQTQIKVRGYHLDVYQHVNNARYLEFLEEARWDGLENSDSFQWMTAHNIAFVVVNININYRRPAVLSDLLTITSQLQQLNGKSGILSQVITLEPEGQVVADALITFVCIDLKTQKALALEGELREKLEQMVK”, the “total protein half-life in vivo” value is 4.69 ± 0.88 h under setting [7]; 3.29 ± 0.61 h under setting [1]; 3.46 ± 0.25 h under setting [8]; 3.35 ± 0.049 h under setting [2]; 3.22 ± 0.17 h under setting [9]; 5.29 ± 0.48 h under setting [10]. For the same sequence, the “total protein half-life in vivo” value under setting [3] is 7.87 ± 0.63 h; the “total protein half-life in vivo” value under setting [4] turned out to be 3.29 ± 0.11 h; the “total protein half-life in vivo” value under setting [11] came to 4.77 ± 0.72 h; the “total protein half-life in vivo” value under setting [5] came to 5.365 ± 0.043 h; the “total protein half-life in vivo” value under setting [6] came out at 9.67 ± 0.54 h.
“MAIEQTAITRATFDEVILPIYAPAEFIPVKGQGSRIWDQQGKEYVDFAGGIAVTALGHCHPALVNALKTQGETLWHISNVFTNEPALRLGRKLIEATFAERVVFMNSGTEANETAFKLARHYACVRHSPFKTKIIAFHNAFHGRSLFTVSVGGQPKYSDGFGPKPADIIHVPFNDLHAVKAVMDDHTCAVVVEPIQGEGGVTAATPEFLQGLRELCDQHQALLVFDEVQCGMGRTGDLFAYMHYGVTPDILTSAKALGGGFPISAMLTTAEIASAFHPGSHGSTYGGNPLACAVAGAAFDIINTPEVLEGIQAKRQRFVDHLQKIDQQYDVFSDIRGMGLLIGAELKPQYKGRARDFLYAGAEAGVMVLNAGPDVMRFAPSLVVEDADIDEGMQRFAHAVAKVVGA”: the “total protein half-life in vivo” value under setting [7] worked out at 5.24 ± 0.26 h; the “total protein half-life in vivo” value under setting [1] was 4.41 ± 0.43 h; the “total protein half-life in vivo” value under setting [8] was found to be 4.47 ± 0.0086 h; the “total protein half-life in vivo” value under setting [12] was determined as 4.76 ± 0.3 h; the “total protein half-life in vivo” value under setting [2] came to 4.4 ± 0.099 h; the “total protein half-life in vivo” value under setting [9] was found to be 3.53 ± 0.35 h. Further, the “total protein half-life in vivo” value was found to be 6.1 ± 0.17 h under setting [10]; 9.18 ± 0.29 h under setting [3]; 4.42 ± 0.3 h under setting [4]; 7.08 ± 0.24 h under setting [11]; 5.71 ± 0.09 h under setting [5]; 11.36 ± 0.11 h under setting [6].
“MFNRPNRNDVDDGVQDIQNDVNQLADSLESVLKSWGSDAKGEAEAARSKAQALLKETRARMHGRTRVQQAARDAVGCADSFVRERPWCSVGTAAAVGIFIGALLSMRKS [P0ADQ7]”: the “total protein half-life in vivo” value was found to be 5.92 ± 0.068 h under setting [7]; 7.51 ± 0.67 h under setting [8]; 4.83 ± 0.087 h under setting [2]; 2.37 ± 0.46 h under setting [9]; 5.79 ± 0.34 h under setting [10]; 9.97 ± 1.7 h under setting [3]. Also, the “total protein half-life in vivo” value by setting is: under setting [4], 5.55 ± 0.094 h; under setting [11], 11.3 ± 1.4 h; under setting [5], 5.17 ± 0.21 h; under setting [6], 10.8 ± 0.18 h.
As for “MSNLSLDFSDNTFQPLAARMRPENLAQYIGQQHLLAAGKPLPRAIEAGHLHSMILWGPPGTGKTTLAEVIARYANADVERISAVTSGVKEIREAIERARQNRNAGRRTILFVDEVHRFNKSQQDAFLPHIEDGTITFIGATTENPSFELNSALLSRARVYLLKSLSTEDIEQVLTQAMEDKTRGYGGQDIVLPDETRRAIAELVNGDARRALNTLEMMADMAEVDDSGKRVLKPELLTEIAGERSARFDNKGDRFYDLISALHKSVRGSAPDAALYWYARIITAGGDPLYVARRCLAIASEDVGNADPRAMQVAIAAWDCFTRVGPAEGERAIAQAIVYLACAPKSNAVYTAFKAALADARERPDYDVPVHLRNAPTKLMKEMGYGQEYRYAHDEANAYAAGEVYFPPEIAQTRYYFPTNRGLEGKIGEKLAWLAEQDQNSPIKRYR [P0AAZ4]”, the “total protein half-life in vivo” value is, setting by setting: under setting [7], 5.65 ± 0.3 h; under setting [1], 4.56 ± 0.49 h; under setting [8], 4.91 ± 1.5 h; under setting [12], 4.562 ± 0.028 h; under setting [2], 3.65 ± 0.14 h; under setting [9], 3.02 ± 0.14 h. Further, the “total protein half-life in vivo” value runs as follows: under setting [10], 5.39 ± 0.29 h; under setting [3], 9.37 ± 0.81 h; under setting [4], 3.82 ± 0.099 h; under setting [11], 5.11 ± 0.23 h; under setting [5], 5.07 ± 0.082 h; under setting [6], 9.954 ± 0.019 h.
As to “MLNSFKLSLQYILPKLWLTRLAGWGASKRAGWLTKLVIDLFVKYYKVDMKEAQKPDTASYRTFNEFFVRPLRDEVRPIDTDPNVLVMPADGVISQLGKIEEDKILQAKGHNYSLEALLAGNYLMADLFRNGTFVTTYLSPRDYHRVHMPCNGILREMIYVPGDLFSVNHLTAQNVPNLFARNERVICLFDTEFGPMAQILVGATIVGSIETVWAGTITPPREGIIKRWTWPAGENDGSVALLKGQEMGRFKLGSTVINLFAPGKVNLVEQLESLSVTKIGQPLAVSTETFVTPDAEPAPLPAEEIEAEHDASPLVDDKKDQV [P0A8K1]”, the “total protein half-life in vivo” value under setting [7] amounted to 6.31 ± 0.2 h; the “total protein half-life in vivo” value under setting [1] was 6.33 ± 0.086 h; the “total protein half-life in vivo” value under setting [8] was 5.99 ± 0.61 h; the “total protein half-life in vivo” value under setting [12] was 5.79 ± 0.1 h; the “total protein half-life in vivo” value under setting [2] stood at 6 ± 0.58 h; the “total protein half-life in vivo” value under setting [9] worked out at 2.76 ± 0.4 h. The “total protein half-life in vivo” value runs as follows: under setting [10], 6.32 ± 0.66 h; under setting [3], 12.8 ± 0.63 h; under setting [4], 6.81 ± 0.24 h; under setting [5], 6.16 ± 0.32 h; under setting [6], 13.3 ± 0.12 h.
